Tests used:
cynomolgus LAG3 on cells = target: T1, cynomolgus LAG3 on cells (cynomolgus); assay: flow cytometry on activated cynomolgus PBMC, 10 µg/ml (only 2nd Ab (hu): 7.62)
T1 construct: whole, on cells; also called cyno-LAG-3; cynoLAG3
Experimental: Thus, cynomolgus peripheral blood mononuclear cells (PBMC) were prepared from fresh cynomolgus blood and were then activated by CD3/CD28 pre-treatment (1 μg/ml) for 2-3 days. […] After staining, cells were washed two times with PBS/2% FCS and analyzed on a FACS Fortessa (BD).

biotinylated-Lag3 [1] = target: T2, biotinylated-Lag3 (UniProt P18627 23-450, limits assumed, biotinylated); assay: ELISA, inhibition of biotinylated-Lag3 binding to MHC-II on A375 cells (competitor MHC-II)
T2 construct: Probably a human LAG3 ECD construct; also called Lag3 (MHCII/ELISA)
T2 sequence (looked up): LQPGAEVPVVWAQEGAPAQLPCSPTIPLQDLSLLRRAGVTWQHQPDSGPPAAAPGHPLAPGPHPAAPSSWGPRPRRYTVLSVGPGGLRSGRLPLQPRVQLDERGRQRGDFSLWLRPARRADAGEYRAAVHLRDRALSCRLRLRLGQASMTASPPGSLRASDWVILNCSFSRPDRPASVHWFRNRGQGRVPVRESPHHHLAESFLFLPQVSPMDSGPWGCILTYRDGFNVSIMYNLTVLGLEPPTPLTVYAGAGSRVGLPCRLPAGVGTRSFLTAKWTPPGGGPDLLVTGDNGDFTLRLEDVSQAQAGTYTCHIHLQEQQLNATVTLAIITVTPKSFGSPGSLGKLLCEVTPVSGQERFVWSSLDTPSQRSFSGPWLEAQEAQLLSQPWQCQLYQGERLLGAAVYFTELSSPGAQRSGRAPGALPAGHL
Experimental: 25 μl/well of A375 cells (10000 cells/well) were seeded into tissue culture treated 384-well plates (Corning, 3701) and incubated at 37° C. overnight. […] After washing (1×90 μl in PBST) cells were fixed by addition of 30 μl/well glutaraldehyde to a final concentration of 0.05% (Sigma Cat.No: G5882), 10 min at room temperature. After washing (3×90 μl/well with PBST-buffer) 25 μl/well Poly-HRP40-Streptavidin (Fitzgerald, 65R-S104PHRPx) was added in a 1:2000 or 1:8000 dilution and incubated at RT for 1 h. After washing (3×90 μl/well with PBST-buffer) 25 μl/well TMB substrate (Roche, #11835033001) was added and incubated for 2 to 10 min. Measurement took place on a Tecan Safire 2 instrument at 370/492 nm.

[2] = target: T3, LAG3 on cells (recombinant CHO cells expressing Lag3) (human, UniProt P18627 29-525); assay: cell-based or functional assay
T3 sequence: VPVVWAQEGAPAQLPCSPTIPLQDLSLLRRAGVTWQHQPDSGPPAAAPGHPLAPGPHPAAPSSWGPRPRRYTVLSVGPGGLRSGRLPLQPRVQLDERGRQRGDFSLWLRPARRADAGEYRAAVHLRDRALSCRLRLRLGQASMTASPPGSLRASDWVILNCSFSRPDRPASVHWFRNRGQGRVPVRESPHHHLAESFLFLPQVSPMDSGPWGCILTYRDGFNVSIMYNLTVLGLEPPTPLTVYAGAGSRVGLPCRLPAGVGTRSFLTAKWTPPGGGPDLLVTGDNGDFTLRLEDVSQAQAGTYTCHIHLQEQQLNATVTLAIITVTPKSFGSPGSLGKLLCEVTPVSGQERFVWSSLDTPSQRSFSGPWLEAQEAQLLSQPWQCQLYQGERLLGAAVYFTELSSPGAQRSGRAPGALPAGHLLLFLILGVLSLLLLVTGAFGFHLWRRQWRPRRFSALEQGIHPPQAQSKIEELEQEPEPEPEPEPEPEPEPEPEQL

biotinylated-Lag3 [3] = target: T2, biotinylated-Lag3; assay: ELISA, inhibition of biotinylated-Lag3 binding to MHC-II on A375 cells (competitor MHC-II); first of two numbers
[4] = target: T4, human Fc tagged human Lag3 extra cellular domain (human, UniProt P18627 29-450, biotinylated in the epitope binning, the SA CAP SPR and the FACS competition assay); assay: FACS, inhibition of biotinylated Lag3:Fc binding to MHC-II on A375 cells (competitor MHC-II); antibody 10 µg/ml
T4 construct: In-house fusion; also called huLag3-Fc; biotinylated, huFc-tagged huLag3; not shown: human Fc tag
T4 sequence: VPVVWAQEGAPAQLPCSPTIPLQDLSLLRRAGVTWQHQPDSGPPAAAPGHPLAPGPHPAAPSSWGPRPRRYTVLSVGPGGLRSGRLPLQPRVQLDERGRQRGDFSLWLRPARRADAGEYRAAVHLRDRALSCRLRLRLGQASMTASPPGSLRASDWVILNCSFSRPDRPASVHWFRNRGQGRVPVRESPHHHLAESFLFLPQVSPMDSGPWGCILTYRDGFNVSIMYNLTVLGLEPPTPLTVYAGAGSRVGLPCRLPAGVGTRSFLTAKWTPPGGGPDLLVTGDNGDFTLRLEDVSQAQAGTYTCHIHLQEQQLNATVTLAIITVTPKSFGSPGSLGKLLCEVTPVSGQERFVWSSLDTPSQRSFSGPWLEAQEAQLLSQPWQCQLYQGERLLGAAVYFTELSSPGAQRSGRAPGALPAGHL
Experimental: This analysis was studied in a FACS competition experiment: A375 cells (ATCC, #CRL-1619) were cultured for 2-3 passages in EM Eagle's medium supplemented with EBSS (PAN, cat.no. #P04-00509), 10% FBS, 2 mM L-Glutamin, 1×NEAA and 1× Sodium Pyruvate. All antibodies, were diluted in FACS buffer to a final concentration of 20 μg/ml in 25 μl (in 96well U-bottom plates). […] A375 cells were washed with PBS and adjusted to 3×10⁶ cells/ml in PBS. 100 μl were seeded per well in a 96well V-bottom plate. Plates were centrifuged and supernatant was removed. […] After this, cells were washed with 200 μl FACS buffer. […] After staining, cells were again washed and then transferred in 150 μl FACS buffer (PBS/2% FBS) to a U-bottom plate and analyzed on a FACS Canto-II using an HTS module.
All antibodies were used at 10 μg/ml final concentration.

biotinylated-Lag3 [5] = target: T2, biotinylated-Lag3; assay: ELISA, inhibition of biotinylated-Lag3 binding to MHC-II on A375 cells (competitor MHC-II); second of two numbers
hu PD1-ECD [6] = target: T5, hu PD1-ECD (human, UniProt Q15116 25-170); assay: SPR (Biacore T200), antibody captured by anti-human IgG, hu PD1-ECD as analyte, 25 °C, 1:1 Langmuir fit
T5 construct: SPR analyte; also called human PD1-ECD
T5 sequence (Q15116 25-170 limits assumed): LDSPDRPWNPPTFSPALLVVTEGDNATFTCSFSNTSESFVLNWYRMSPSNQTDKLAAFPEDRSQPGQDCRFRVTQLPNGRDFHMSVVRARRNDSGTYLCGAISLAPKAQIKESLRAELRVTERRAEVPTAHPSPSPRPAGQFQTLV
Experimental: Therefore, an anti-human IgG was immobilized by amine coupling to the surface of a (Biacore) CM5 sensor chip. […] The sensor chip surface was regenerated after each analysis cycle. The equilibrium constant and kinetic rate constants were finally gained by fitting the data to a 1:1 langmuir interaction model.
(§1) The samples were injected for 20 seconds with a concentration of 10 nM and bound to the second flow cell.
Finally the double referenced data was fitted to a 1:1 Langmuir interaction model with the Biacore T200 Evaluation Software.

[7] = target: T6, biotinylated cynoPD1-ECD-Biotin (cynomolgus, UniProt B0LAJ3 25-170, biotinylated; the site and any Avi or His tag are not stated in the passages shown); assay: ELISA on coated cynoPD1-ECD-Biotin
T6 construct: also called cyPD1
T6 sequence (B0LAJ3 entry or part of it limits assumed): as the sequence (Q15116 25-170 limits assumed) above, with D2E, P10A, V19L, T35A, Q75R, T144A counted along it

hu PD1-ECD [8] = target: T5, hu PD1-ECD; assay: SPR; row head 'Affinity KD 37° C.'; second of two numbers, equal to the 25 °C value of Table 3
[9] = target: T7, biotinylated PD1-ECD-AviHis (human, UniProt Q15116 25-170, biotinylated); assay: ELISA (hu PD1, as described above)
T7 construct: also called huPD1; hu PD1; not shown: Avi-His tag
T7 sequence (Q15116 25-170): as the sequence (Q15116 25-170 limits assumed) above
Experimental: After washing (3×90 μl/well with PBST-buffer) 25 μl/well goat-anti-human H+L-POD (JIR, JIR109-036-088)/Sheep-anti-mouse-POD (GE Healthcare; NA9310) was added in 1:2000/1:1000 dilution and incubated at RT for 1 h on shaker. After washing (3×90 μl/well with PBST-buffer) 25 μl/well TMB substrate (Roche Catalogue No. 11835033001) was added and incubated until OD 2-3. Measurement took place at 370/492 nm.

hu PD1-ECD [10] = target: T5, hu PD1-ECD; assay: SPR; row head 'Affinity KD 37° C.'; first of two numbers
Experimental: as §1

[11] = target: T8, full-length human PD1 on cells (human, UniProt Q15116 25-288); assay: cell ELISA on CHO-K1 cells expressing full-length human PD1
T8 construct: also called CHO-PD1
T8 sequence (Q15116 25-288 limits assumed): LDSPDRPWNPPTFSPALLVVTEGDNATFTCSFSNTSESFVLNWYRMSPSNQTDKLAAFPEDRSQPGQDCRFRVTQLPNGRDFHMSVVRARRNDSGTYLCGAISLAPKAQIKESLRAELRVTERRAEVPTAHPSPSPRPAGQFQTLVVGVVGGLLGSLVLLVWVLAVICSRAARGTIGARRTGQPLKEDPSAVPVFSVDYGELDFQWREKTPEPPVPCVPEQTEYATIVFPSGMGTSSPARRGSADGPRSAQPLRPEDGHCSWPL
Experimental: (to avoid internalization). After washing carefully (1×90 μl/well PBST) cells were fixed by adding 30 μl/well 0.05% Glutaraldehyde (Sigma, Cat.No: G5882, 25%) diluted in 1×PBS-buffer and incubated for 10 min at RT. After washing (3×90 μl/well PBST) 25 μl/well secondary antibody was added for detection: goat-anti-human H+L-POD (JIR, JIR109-036-088)/Sheep-anti-mouse-POD (GE NA9310) followed by 1h incubation at RT on shaker. After washing (3×90 μl/well PBST) 25 μl/well TMB substrate solution (Roche 11835033001) was added and incubated until OD 1.0-2.0. Plates were measured at 370/492 nm.

[12] = target: T7, biotinylated PD1-ECD-AviHis; assay: ELISA on coated biotinylated PD1-ECD-AviHis
[13] = target: T6, biotinylated cynoPD1-ECD-Biotin; assay: ELISA on cyno PD1; row head 'cynomolgus crossreactivity (EC50 [nm])'

B1: humanized BAP050 (LAG525) (antibody, V domains shown)
VH: QIQLVQSGPELKKPGETVKISCKASGFTLTNYGMNWVRQTPGKGLKWMGWINTDTGEPTYADDFKGRFAFSLETSASTASLQINNLKNADTATYFCARNPPYYYGTNNAEAMDYWGQGTTVTVSS
VL: DIQMTQTTSSLSASLGDRVTISCSSSQDISNYLNWYQQKPDGTVKVLIYYTSTLHLGVPSRFSGSGSGTDYSLTISNLELEDIATYYCQQYYNLPWTFGQGTKVEIK
notes: also called aLAG3(BAP050)
% positive cyno cells (PBLs) after CD3/CD28 activation (cynomolgus LAG3 on cells): 50.7%
IC50 (biotinylated-Lag3 [1]): 1 nM
EC50 [nM] in Jurkat LAG3 + SED + Raji (NFAT luciferase), 2nd assay [2]: 22.6 nM

B2: Reference MDX26H10 (antibody, V domains shown)
VH: QVQLVESGGGVVQPGRSLRLSCAASGFTFSSYGMHWVRQAPGKGLEWVAVIWYDGSNKYYADSVKGRFTISRDNSKNTLYLQMNSLRAEDTAVYYCAREWAVASWDYGMDVWGQGTTVTVSS
VL: not shown
notes: also called MDX-26H10 (26H10); aLAG3(MDX26H10)
IC50 (biotinylated-Lag3 [3]): 0.9 nM
% Inhibition [4]: 71.7%
IC50 (biotinylated-Lag3 [5]): 0.6 nM

B3: PD1-0103-0312 (antibody, human IgG1, V domains shown)
VH: EVQLLESGGGLVQPGGSLRLSCAASGFSFSSYTMSWVRQAPGKGLEWVATISGGGRDIYYPDSVKGRFTISRDNSKNTLYLQMNSLRAEDTAVYYCVLLTGRVYFALDSWGQGTLVTVSS
VL: DIVMTQSPDSLAVSLGERATINCKASESVDTSDNSFIHWYQQKPGQSPKLLIYRSSTLESGVPDRFSGSGSGTDFTLTISSLQAEDVAVYYCQQNYDVPWTFGQGTKVEIK
notes: Humanized; also called PD1-103-0312; PD-0103-0312
Kd (hu PD1-ECD [6]): 1.8 nM
koff (hu PD1-ECD [6]): 0.000345 s⁻¹
kon (hu PD1-ECD [6]): 195000 M⁻¹ s⁻¹
EC50 [7]: 0.0083 µg/mL
Kd (hu PD1-ECD [8]): 1.8 nM
EC50 [9]: 0.1 nM
Kd (hu PD1-ECD [10]): 1.5 nM
EC50 [11]: 0.0101 µg/mL
EC50 [12]: 0.011 µg/mL
EC50 [13]: 0.08 nM

B4: PD1-0103-0313 (antibody, human IgG1, V domains shown)
VH: EVQLLESGGGLVQPGGSLRLSCAASGFSFSSYTMSWVRQAPGKGLEWVATISGGGRDIYYPDSVKGRFTISRDNSKNTLYLQMNSLRAEDTAVYYCVLLTGRVYFALDSWGQGTLVTVSS
VL: DVVMTQSPLSLPVTLGQPASISCRASESVDTSDNSFIHWYQQRPGQSPRLLIYRSSTLESGVPDRFSGSGSGTDFTLKISRVEAEDVGVYYCQQNYDVPWTFGQGTKVEIK
notes: Humanized; also called PD1-103-0313; PD-0103-0313
Kd (hu PD1-ECD [6]): 2.3 nM
koff (hu PD1-ECD [6]): 0.000367 s⁻¹
kon (hu PD1-ECD [6]): 160000 M⁻¹ s⁻¹
EC50 [7]: 0.011 µg/mL
Kd (hu PD1-ECD [8]): 2.3 nM
EC50 [9]: 0.07 nM
Kd (hu PD1-ECD [10]): 1.9 nM
EC50 [11]: 0.0108 µg/mL
EC50 [12]: 0.015 µg/mL
EC50 [13]: 0.06 nM

B5: PD1-0103-0314 (antibody, human IgG1, V domains shown)
VH: EVQLLESGGGLVQPGGSLRLSCAASGFSFSSYTMSWVRQAPGKGLEWVATISGGGRDIYYPDSVKGRFTISRDNSKNTLYLQMNSLRAEDTAVYYCVLLTGRVYFALDSWGQGTLVTVSS
VL: EIVLTQSPATLSLSPGERATLSCRASESVDTSDNSFIHWYQQKPGQSPRLLIYRSSTLESGIPARFSGSGSGTDFTLTISSLEPEDFAVYYCQQNYDVPWTFGQGTKVEIKR
notes: Humanized; also called PD1-103-0314; PD-0103-0314
Kd (hu PD1-ECD [6]): 1.5 nM
koff (hu PD1-ECD [6]): 0.000279 s⁻¹
kon (hu PD1-ECD [6]): 187000 M⁻¹ s⁻¹
EC50 [7]: 0.0083 µg/mL
Kd (hu PD1-ECD [8]): 1.5 nM
EC50 [9]: 0.07 nM
Kd (hu PD1-ECD [10]): 1.6 nM
EC50 [11]: 0.0077 µg/mL
EC50 [12]: 0.011 µg/mL
EC50 [13]: 0.05 nM
